Data on four molecules can be found in PMC9482650, “Quantitative fragmentomics allow affinity mapping of interactomes” (Nature Communications, 2022).

Among the targets are TJP1_2, Q07157; SCRIB_2, Q14160; MAGI1_2, Q96QZ7; GRIP2_4, Q9C0E4; Inadl_1, Q8NI35; Inadl_2, Q8NI35; GRID2IP_2, A4D2P6; GOPC, Q9HD26; GRASP, Q7Z6J2; DLG2_3, Q15700; LAP2, Q96RT1; DLG5_1, Q8TDM6.
What all share (assay): holdup assay
Common to all, as to set-up: key: below the threshold = too weak to quantify, mostly under pKd 3.1 to 4

The target in the next test is T1, DLG3_3, Q92796.
T1 sequence (Q92796 374-475, limits assumed, looked up): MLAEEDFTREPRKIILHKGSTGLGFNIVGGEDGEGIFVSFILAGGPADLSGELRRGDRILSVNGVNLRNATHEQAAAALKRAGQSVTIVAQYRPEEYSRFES

The target in another test is T2, HTRA3, P83110.
T2 sequence (P83110 354-453, limits assumed, looked up): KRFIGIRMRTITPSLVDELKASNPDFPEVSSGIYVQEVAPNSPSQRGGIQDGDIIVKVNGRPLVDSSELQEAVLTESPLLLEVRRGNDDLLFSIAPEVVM

The target in another test is T3, APBA1_1, Q02410.
T3 sequence (Q02410 651-752, limits assumed, looked up): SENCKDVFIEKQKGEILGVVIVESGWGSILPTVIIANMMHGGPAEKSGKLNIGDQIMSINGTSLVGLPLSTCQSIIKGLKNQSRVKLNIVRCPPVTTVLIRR

The target in the next test is T4, GRIP1_3, Q9Y3R0.
T4 sequence (Q9Y3R0 247-346, limits assumed, looked up): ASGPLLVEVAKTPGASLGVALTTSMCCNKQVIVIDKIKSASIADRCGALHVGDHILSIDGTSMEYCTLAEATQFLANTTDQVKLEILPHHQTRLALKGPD

For a further test, the target named is T5, APBA2_2, Q99767.
T5 sequence (Q99767 654-744, limits assumed, looked up): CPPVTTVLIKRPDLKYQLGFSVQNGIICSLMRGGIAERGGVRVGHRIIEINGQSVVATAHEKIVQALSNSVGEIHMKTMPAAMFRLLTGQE

The target in a further test is T6, MPDZ_12, O75970.
T6 sequence (O75970 1857-1958, limits assumed, looked up): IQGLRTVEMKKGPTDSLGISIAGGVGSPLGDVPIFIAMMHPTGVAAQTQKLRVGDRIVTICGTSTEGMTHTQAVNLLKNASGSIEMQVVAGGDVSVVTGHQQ

The target of the next test is T7, MPP6, Q9NZW5.
T7 sequence (Q9NZW5 125-219, limits assumed, looked up): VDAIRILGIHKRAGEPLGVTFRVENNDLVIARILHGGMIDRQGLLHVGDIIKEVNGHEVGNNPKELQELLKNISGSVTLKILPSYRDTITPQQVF

For another test, the target named is T8, SHANK1, Q9Y566.
T8 sequence (Q9Y566 658-767, limits assumed, looked up): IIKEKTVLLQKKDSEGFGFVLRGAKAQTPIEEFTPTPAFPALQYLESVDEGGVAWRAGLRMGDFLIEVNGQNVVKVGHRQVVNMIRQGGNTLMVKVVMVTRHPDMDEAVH

A further test concerns the target T9, DLG3_2, Q92796.
T9 sequence (Q92796 221-321, limits assumed, looked up): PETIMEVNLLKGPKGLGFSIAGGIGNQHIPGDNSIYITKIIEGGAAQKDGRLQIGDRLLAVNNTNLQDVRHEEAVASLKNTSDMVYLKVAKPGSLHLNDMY

For a further test, the target named is T10, GRIP1_2, Q9Y3R0.
T10 sequence (Q9Y3R0 145-248, limits assumed, looked up): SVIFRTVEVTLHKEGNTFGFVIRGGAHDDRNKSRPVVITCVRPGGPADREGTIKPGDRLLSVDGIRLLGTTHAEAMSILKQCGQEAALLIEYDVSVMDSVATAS

In another test the target is T11, ARHGEF11, O15085.
T11 sequence (O15085 42-136, limits assumed, looked up): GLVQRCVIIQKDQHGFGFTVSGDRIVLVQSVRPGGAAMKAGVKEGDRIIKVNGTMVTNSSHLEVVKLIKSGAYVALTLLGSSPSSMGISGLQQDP

Another test concerns the target T12, PARD3B_1, Q8TEW8.
T12 sequence (Q8TEW8 196-299, limits assumed, looked up): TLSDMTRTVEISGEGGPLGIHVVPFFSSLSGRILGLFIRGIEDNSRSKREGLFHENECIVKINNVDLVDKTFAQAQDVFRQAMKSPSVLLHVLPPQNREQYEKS

The mark [1] stands for this setting: plain residues with an end cap or a label only (N-terminal biotin on a linker: ado-ado).
Setting [2] is: plain residues with an end cap or a label only (N-terminal biotin on a linker: (peg)3).

Chain of Inadl_1, Q8NI35 (Q8NI35 113-229): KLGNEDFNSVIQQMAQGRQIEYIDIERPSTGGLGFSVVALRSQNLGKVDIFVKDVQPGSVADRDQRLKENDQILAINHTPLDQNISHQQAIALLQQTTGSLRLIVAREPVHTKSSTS
Chain of Inadl_2, Q8NI35 (Q8NI35 238-335): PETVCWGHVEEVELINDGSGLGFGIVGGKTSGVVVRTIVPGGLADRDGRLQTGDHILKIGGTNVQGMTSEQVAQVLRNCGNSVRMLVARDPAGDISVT
Chain of SCRIB_2, Q14160 (Q14160 857-960): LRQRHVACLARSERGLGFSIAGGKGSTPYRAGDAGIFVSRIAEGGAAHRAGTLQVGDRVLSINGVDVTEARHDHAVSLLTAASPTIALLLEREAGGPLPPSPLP
Chain of GRASP, Q7Z6J2 (Q7Z6J2 96-193): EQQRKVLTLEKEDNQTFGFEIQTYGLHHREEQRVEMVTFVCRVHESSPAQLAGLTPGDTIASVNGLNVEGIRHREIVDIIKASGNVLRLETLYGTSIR
Chain of MAGI1_2, Q96QZ7 (Q96QZ7 456-580): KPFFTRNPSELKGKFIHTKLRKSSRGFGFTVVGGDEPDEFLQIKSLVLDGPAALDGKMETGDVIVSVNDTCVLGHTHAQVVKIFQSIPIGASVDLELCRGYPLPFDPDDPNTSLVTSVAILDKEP
Chain of GRID2IP_2, A4D2P6 (A4D2P6 272-370): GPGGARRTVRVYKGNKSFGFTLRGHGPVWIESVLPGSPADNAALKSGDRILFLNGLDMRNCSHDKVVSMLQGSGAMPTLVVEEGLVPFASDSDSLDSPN
Chain of TJP1_2, Q07157 (Q07157 181-274): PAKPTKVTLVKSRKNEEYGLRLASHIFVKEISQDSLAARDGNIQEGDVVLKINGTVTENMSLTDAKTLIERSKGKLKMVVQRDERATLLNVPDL
Chain of DLG5_1, Q8TDM6 (Q8TDM6 617-713): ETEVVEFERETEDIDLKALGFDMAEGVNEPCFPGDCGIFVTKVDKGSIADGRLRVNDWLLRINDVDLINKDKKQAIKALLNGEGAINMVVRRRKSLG
Chain of LAP2, Q96RT1 (Q96RT1 other isoform, or with tags, fused parts or gaps): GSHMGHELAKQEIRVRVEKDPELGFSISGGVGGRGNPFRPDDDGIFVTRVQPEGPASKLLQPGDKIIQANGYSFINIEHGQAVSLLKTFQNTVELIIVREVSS
Chain of GRIP2_4, Q9C0E4 (Q9C0E4 446-548): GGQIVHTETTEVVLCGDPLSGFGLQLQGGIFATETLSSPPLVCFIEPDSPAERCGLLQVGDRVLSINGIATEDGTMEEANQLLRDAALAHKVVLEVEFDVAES

Regarding LTAQEQPVYI [APBA1, Q02410], the pKd (commonly the Kd on a negative log10 scale, so that one unit is a factor of ten) was 3.55 with TJP1_2, Q07157 (setting [1]); “below the threshold” with DLG3_3, Q92796 (setting [1]); “below the threshold” in the test with SCRIB_2, Q14160 (setting [1]); “below the threshold” with MAGI1_2, Q96QZ7 (setting [1]); “below the threshold” with GRIP2_4, Q9C0E4 (setting [1]); “below the threshold” with Inadl_1, Q8NI35 (setting [1]). Moreover, the pKd in the test with HTRA3, P83110 (setting [1]) is 4.41; in the test with APBA1_1, Q02410 (setting [1]), 3.65; in the test with GRIP1_3, Q9Y3R0 (setting [1]), “below the threshold”; with APBA2_2, Q99767 (setting [1]), “below the threshold”; in the test with MPDZ_12, O75970 (setting [1]) it was “below the threshold”; with MPP6, Q9NZW5 (setting [1]), “below the threshold”. Moreover, the pKd was 3.72 with Inadl_2, Q8NI35 (setting [1]); 3.81 with GRID2IP_2, A4D2P6 (setting [1]); “below the threshold” with SHANK1, Q9Y566 (setting [1]); “below the threshold” with GOPC, Q9HD26 (setting [1]); “below the threshold” with GRASP, Q7Z6J2 (setting [1]); 4.06 with DLG3_2, Q92796 (setting [1]). The negative logarithm of the Kd (pKd) with DLG2_3, Q15700 (setting [1]) was 3.68; in the test with GRIP1_2, Q9Y3R0 (setting [1]), “below the threshold”; in the test with LAP2, Q96RT1 (setting [1]), “below the threshold”; with DLG5_1, Q8TDM6 (setting [1]), “below the threshold”; with ARHGEF11, O15085 (setting [1]), 4.21; in the test with PARD3B_1, Q8TEW8 (setting [1]) it was 5.

Regarding RTQSSDSAYV [GJD2, Q9UKL4], the pKd entry is on record as “below the threshold” in the test with TJP1_2, Q07157 (setting [1]); “below the threshold” with DLG3_3, Q92796 (setting [1]); “below the threshold” with SCRIB_2, Q14160 (setting [1]); “below the threshold” with MAGI1_2, Q96QZ7 (setting [1]); “below the threshold” with GRIP2_4, Q9C0E4 (setting [1]); “below the threshold” with Inadl_1, Q8NI35 (setting [1]). For the same molecule, the pKd with HTRA3, P83110 (setting [1]) is 4.68; with APBA1_1, Q02410 (setting [1]), “below the threshold”; in the test with GRIP1_3, Q9Y3R0 (setting [1]) it was “below the threshold”; with APBA2_2, Q99767 (setting [1]), “below the threshold”; in the test with MPDZ_12, O75970 (setting [1]) it was “below the threshold”; with MPP6, Q9NZW5 (setting [1]), “below the threshold”. Besides, the negative-log Kd (pKd) result is “below the threshold” in the test with Inadl_2, Q8NI35 (setting [1]); “below the threshold” with GRID2IP_2, A4D2P6 (setting [1]); “below the threshold” in the test with SHANK1, Q9Y566 (setting [1]); “below the threshold” with GOPC, Q9HD26 (setting [1]); 3.48 with GRASP, Q7Z6J2 (setting [1]); “below the threshold” with DLG3_2, Q92796 (setting [1]). The negative logarithm of the Kd (pKd) entry was “below the threshold” with DLG2_3, Q15700 (setting [1]); “below the threshold” with GRIP1_2, Q9Y3R0 (setting [1]); “below the threshold” with LAP2, Q96RT1 (setting [1]); “below the threshold” with DLG5_1, Q8TDM6 (setting [1]); 4.21 in the test with ARHGEF11, O15085 (setting [1]); 4.63 with PARD3B_1, Q8TEW8 (setting [1]).

As to YDEPTTTTSVPL [SARS-Cov2-3a, P0DTC3], the negative logarithm of the Kd (pKd) with TJP1_2, Q07157 (setting [2]) is 4.56; with DLG3_3, Q92796 (setting [2]) it was “below the threshold”; with SCRIB_2, Q14160 (setting [2]), “below the threshold”; with MAGI1_2, Q96QZ7 (setting [2]) it was “below the threshold”; with GRIP2_4, Q9C0E4 (setting [2]) it was “below the threshold”; in the test with Inadl_1, Q8NI35 (setting [2]), “below the threshold”. For the same molecule, the negative-log Kd (pKd) result is “below the threshold” with HTRA3, P83110 (setting [2]); “below the threshold” with APBA1_1, Q02410 (setting [2]); “below the threshold” with GRIP1_3, Q9Y3R0 (setting [2]); “below the threshold” with APBA2_2, Q99767 (setting [2]); “below the threshold” with MPDZ_12, O75970 (setting [2]); “below the threshold” with MPP6, Q9NZW5 (setting [2]). Moreover, the negative-log Kd (pKd) result with Inadl_2, Q8NI35 (setting [2]) is “below the threshold”; with GRID2IP_2, A4D2P6 (setting [2]), “below the threshold”; in the test with SHANK1, Q9Y566 (setting [2]), “below the threshold”; with GOPC, Q9HD26 (setting [2]) it was “below the threshold”; with GRASP, Q7Z6J2 (setting [2]), 3.83; with DLG3_2, Q92796 (setting [2]) it was “below the threshold”. Further, the pKd entry with DLG2_3, Q15700 (setting [2]) is “below the threshold”; with GRIP1_2, Q9Y3R0 (setting [2]) it was “below the threshold”; with LAP2, Q96RT1 (setting [2]), “below the threshold”; in the test with DLG5_1, Q8TDM6 (setting [2]), “below the threshold”; in the test with ARHGEF11, O15085 (setting [2]), “below the threshold”; with PARD3B_1, Q8TEW8 (setting [2]), 4.12.

Turning to RPGFASESKV [ADRB1, P08588], the pKd entry with TJP1_2, Q07157 (setting [1]) was “below the threshold”; with DLG3_3, Q92796 (setting [1]) it was 3.7; in the test with SCRIB_2, Q14160 (setting [1]), 4.04; with MAGI1_2, Q96QZ7 (setting [1]), 3.88; with GRIP2_4, Q9C0E4 (setting [1]), “below the threshold”; with Inadl_1, Q8NI35 (setting [1]), “below the threshold”. Also, the negative-log Kd (pKd) entry with HTRA3, P83110 (setting [1]) is “below the threshold”; with APBA1_1, Q02410 (setting [1]), “below the threshold”; with GRIP1_3, Q9Y3R0 (setting [1]), “below the threshold”; with APBA2_2, Q99767 (setting [1]) it was “below the threshold”; with MPDZ_12, O75970 (setting [1]), “below the threshold”; in the test with MPP6, Q9NZW5 (setting [1]), “below the threshold”. For the same molecule, the negative-log Kd (pKd) result was “below the threshold” in the test with Inadl_2, Q8NI35 (setting [1]); “below the threshold” with GRID2IP_2, A4D2P6 (setting [1]); “below the threshold” in the test with SHANK1, Q9Y566 (setting [1]); 3.64 in the test with GOPC, Q9HD26 (setting [1]); “below the threshold” with GRASP, Q7Z6J2 (setting [1]); 3.61 with DLG3_2, Q92796 (setting [1]). Moreover, the pKd is 3.75 with DLG2_3, Q15700 (setting [1]); “below the threshold” with GRIP1_2, Q9Y3R0 (setting [1]); 3.95 with LAP2, Q96RT1 (setting [1]); “below the threshold” with DLG5_1, Q8TDM6 (setting [1]); 4.05 with ARHGEF11, O15085 (setting [1]); “below the threshold” in the test with PARD3B_1, Q8TEW8 (setting [1]).
